Source: PMC4046564, “Reconstitution of dynein transport to the microtubule plus end by kinesin” (eLife, 2014)

T1: Kip2 (S. cerevisiae, UniProt P28743 1-706, differently phosphorylated forms (doublet on SDS-PAGE; not treated with phosphatase); Atto647N on the SNAP tag in the TIRF assays)
T1 construct: kinesin Kip2, S. cerevisiae; genomic kip2 locus modified by homologous recombination (8HIS-ZZ-Tev-KIP2-g-FLAG-ga-SNAP); also called Kip2-Atto647; kinesin; source: S. cerevisiae (strain RPY1099, GAL1 promoter), purified (IgG sepharose via ZZ tag, TEV release; for SEC Ni-NTA then IgG sepharose); not shown: His8, N-terminal, cleaved; ZZ, N-terminal, cleaved; SNAP, C-terminal, kept
T1 sequence (looked up): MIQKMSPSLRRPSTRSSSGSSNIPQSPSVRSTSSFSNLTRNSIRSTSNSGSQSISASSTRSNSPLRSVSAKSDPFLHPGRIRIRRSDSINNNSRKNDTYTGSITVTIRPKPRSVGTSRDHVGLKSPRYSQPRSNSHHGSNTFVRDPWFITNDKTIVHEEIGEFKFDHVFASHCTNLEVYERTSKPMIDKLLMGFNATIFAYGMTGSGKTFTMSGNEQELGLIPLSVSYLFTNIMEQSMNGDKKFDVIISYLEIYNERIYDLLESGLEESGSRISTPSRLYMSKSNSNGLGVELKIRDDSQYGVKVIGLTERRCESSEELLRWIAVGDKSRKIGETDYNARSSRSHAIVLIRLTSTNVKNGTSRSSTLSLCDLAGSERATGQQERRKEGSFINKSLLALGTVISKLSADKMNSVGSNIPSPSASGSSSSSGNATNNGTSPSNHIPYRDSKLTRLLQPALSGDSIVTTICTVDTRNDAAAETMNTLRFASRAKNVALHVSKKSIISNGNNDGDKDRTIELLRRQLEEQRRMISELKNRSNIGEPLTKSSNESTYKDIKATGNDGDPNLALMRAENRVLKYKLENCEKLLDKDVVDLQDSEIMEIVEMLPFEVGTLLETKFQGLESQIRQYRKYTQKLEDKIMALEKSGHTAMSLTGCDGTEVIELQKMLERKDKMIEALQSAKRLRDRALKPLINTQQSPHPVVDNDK

B1: Bim1 (natural protein, S. cerevisiae, UniProt P40013 1-344, looked up)
chain: MSAGIGESRTELLTWLNGLLNLNYKKIEECGTGAAYCQIMDSIYGDLPMNRVKFNATAEYEFQTNYKILQSCFSRHGIEKTVYVDKLIRCKFQDNLEFLQWLKKHWIRHKDESVYDPDARRKYRPIITNNSATKPRTVSNPTTAKRSSSTGTGSAMSGGLATRHSSLGINGSRKTSVTQGQLVAIQAELTKSQETIGSLNEEIEQYKGTVSTLEIEREFYFNKLRDIEILVHTTQDLINEGVYKFNDETITGHGNGNGGALLRFVKKVESILYATAEGFEMNDGEDELNDKNLGEHGTVPNQGGYANSNGEVNGNEGSNHDVIMQNDEGEVGVSNNLIIDEETF
notes: Bim1 (EB1 homolog), S. cerevisiae; open-reading frame amplified from genomic DNA; also called EB1 homolog; source: E. coli BL-21(DE3), purified (Strep-Tactin, TEV release); not shown: His6, N-terminal, cleaved; Strep, N-terminal, cleaved
B2: Bik1ΔC (domain or fragment, S. cerevisiae, UniProt P11709 1-400, looked up)
chain: MDRYQRKIGCFIQIPNLGRGQLKYVGPVDTKAGMFAGVDLLANIGKNDGSFMGKKYFQTEYPQSGLFIQLQKVASLIEKASISQTSRRTTMEPLSIPKNRSIVRLTNQFSPMDDPKSPTPMRSFRITSRHSGNQQSMDQEASDHHQQQEFGYDNREDRMEVDSILSSDRKANHNTTSDWKPDNGHMNDLNSSEVTIELREAQLTIEKLQRKQLHYKRLLDDQRMVLEEVQPTFDRYEATIQEREKEIDHLKQQLELERRQQAKQKQFFDAENEQLLAVVSQLHEEIKENEERNLSHNQPTGANEDVELLKKQLEQLRNIEDQFELHKTKWAKEREQLKMHNDSLSKEYQNLSKELFLTKPQDSSSEEVASLTKKLEEANEKIKQLEQAQAQTAVESLPIF
notes: Bik1 (Clip170 homolog), S. cerevisiae, lacking the C-terminal 40 amino acids (zinc knuckle domain); also called Bik1ΔC construct lacking the C-terminal 40 amino acids; source: sf21 insect cells (baculovirus), purified (Ni-NTA)
B3: Bik1 (natural protein, S. cerevisiae, UniProt P11709 1-440, looked up)
chain: MDRYQRKIGCFIQIPNLGRGQLKYVGPVDTKAGMFAGVDLLANIGKNDGSFMGKKYFQTEYPQSGLFIQLQKVASLIEKASISQTSRRTTMEPLSIPKNRSIVRLTNQFSPMDDPKSPTPMRSFRITSRHSGNQQSMDQEASDHHQQQEFGYDNREDRMEVDSILSSDRKANHNTTSDWKPDNGHMNDLNSSEVTIELREAQLTIEKLQRKQLHYKRLLDDQRMVLEEVQPTFDRYEATIQEREKEIDHLKQQLELERRQQAKQKQFFDAENEQLLAVVSQLHEEIKENEERNLSHNQPTGANEDVELLKKQLEQLRNIEDQFELHKTKWAKEREQLKMHNDSLSKEYQNLSKELFLTKPQDSSSEEVASLTKKLEEANEKIKQLEQAQAQTAVESLPIFDPPAPVDTTAGRQQWCEHCDTMGHNTAECPHHNPDNQQFF
notes: Bik1 (Clip170 homolog), S. cerevisiae; open-reading frame amplified from genomic DNA; Eluted from Ni-NTA with imidazole; no removal of the tag is told; also called Clip170 homolog; source: sf21 insect cells (baculovirus), purified (Ni-NTA)

How the values were obtained:
[1] = biological target: Kip2 (S. cerevisiae) (UniProt P28743)
[2] = biological target: B3; assay: SEC; Superose 6 PC 3.2/30; indicated combinations of purified protein (100 picomoles each) pre-incubated at 1.1 μM for 10 min at 4°C; 50 mM Tris-HCl pH 8.0, 150 mM potassium acetate, 2 mM magnesium acetate, 1 mM EGTA, 5% glycerol, 1 mM DTT; fractions analysed by SDS-PAGE; conditions: both partners purified
[3] = biological target: B2; assay: as above; conditions: both partners purified
[4] = biological target: T1, Kip2; assay: as above; conditions: both partners purified

## GST-dynein_(331 kDa), P36022 1-4092
[1]
  direction of dynein movements on dynamic microtubules (TIRF) with Lis1, Bik1, Bim1 and Kip2: proportion directed to the plus end; without Lis1 or Bik1 dynein moved to the minus end: 90%

## B1
[2]
  binding result: binds
[3]
  binding result: binds

## B2
[4]
  binding result: binds

## B3
[4]
  binding result: binds
